Starred links: 1 amine or outer side, 2 acyl side, 3 side chain; linkers in the order of their positions; H or OH if unused. Non-standard residues stand in square brackets, D forms with d. TyrEtNAc = (2S)-3-[4-(2-acetamidoethoxy)phenyl]-2-amino-propanoic acid, CC(=O)NCCOc1ccc(C[C@H](N[*:1])C(=O)[*:2])cc1; dProc3Bn = (2R,3S)-3-benzylpyrrolidine-2-carboxylic acid, O=C([C@H]1[C@@H](Cc2ccccc2)CCN1[*:1])[*:2]; dProc4Bn = (2R,4R)-4-benzylpyrrolidine-2-carboxylic acid, O=C([C@H]1C[C@@H](Cc2ccccc2)CN1[*:1])[*:2]; Phe(4-(5-CO2H-2-pyrimidyl)) = N[C@@H](Cc1ccc(-c2ncc(C(=O)O)cn2)cc1)C(=O)O; Trp(βS-Me,4-F) = C[C@@H](c1c[nH]c2cccc(F)c12)[C@H](N)C(=O)O; 3Aminoazetidine3carboxyl = O=C(C1(N[*:1])CN([*:3])C1)[*:2]; Bip(4'-COOH) = N[C@@H](Cc1ccc(-c2ccc(C(=O)O)cc2)cc1)C(=O)O; Ala(1-bicyclo(1.1.1)pentyl) = N[C@@H](CC12CC(C1)C2)C(=O)O; dPro(4R-Bzl(4-F)) = O=C(O)[C@H]1C[C@@H](Cc2ccc(F)cc2)CN1; Ala(pyrimidin-5-yl) = N[C@@H](Cc1cncnc1)C(=O)O; Phe(4-COOH) = N[C@@H](Cc1ccc(C(=O)O)cc1)C(=O)O; Pro(cis-4-F) = O=C(O)[C@@H]1C[C@H](F)CN1; 4Pal = N[C@@H](Cc1ccncc1)C(=O)O; Orn = NCCC[C@H](N)C(=O)O; Dab = NCC[C@H](N)C(=O)O; Aib = CC(C)(N)C(=O)O
Molecular target: Recombinant human IL-1β (BioLegend 579404) (human, UniProt P01584 117-269)
Test: cell-based or functional assay

Row | MRC5 IC50 [nM] | Binder
1 | 0.049 | cyclo([Phe(4-(5-CO2H-2-pyrimidyl))][4Pal][Phe(4-COOH)]G[Pro(cis-4-F)][Trp(βS-Me,4-F)][Aib]EW[3Aminoazetidine3carboxyl][4Pal]Q[Dab]G[dPro(4R-Bzl(4-F))]) (SMILES C[C@@H](c1c[nH]c2cccc(F)c12)[C@@H]1NC(=O)[C@@H]2C[C@H](F)CN2C(=O)CNC(=O)[C@H](Cc2ccc(C(=O)O)cc2)NC(=O)[C@H](Cc2ccncc2)NC(=O)[C@H](Cc2ccc(-c3ncc(C(=O)O)cn3)cc2)NC(=O)[C@H]2C[C@@H](Cc3ccc(F)cc3)CN2C(=O)CNC(=O)[C@H](CCN)NC(=O)[C@H](CCC(N)=O)NC(=O)[C@H](Cc2ccncc2)NC(=O)C2(CNC2)NC(=O)[C@H](Cc2c[nH]c3ccccc23)NC(=O)[C@H](CCC(=O)O)NC(=O)C(C)(C)NC1=O) [SEQ ID NO: 81]
2 | 0.059 | cyclo([TyrEtNAc][4Pal][Phe(4-COOH)][Pro(cis-4-F)][Trp(βS-Me,4-F)][Aib]EW[Aib][Ala(pyrimidin-5-yl)]QSG[dProc4Bn]) (SMILES CC(=O)NCCOc1ccc(C[C@@H]2NC(=O)[C@H]3C[C@@H](Cc4ccccc4)CN3C(=O)CNC(=O)[C@H](CO)NC(=O)[C@H](CCC(N)=O)NC(=O)[C@H](Cc3cncnc3)NC(=O)C(C)(C)NC(=O)[C@H](Cc3c[nH]c4ccccc34)NC(=O)[C@H](CCC(=O)O)NC(=O)C(C)(C)NC(=O)[C@H]([C@@H](C)c3c[nH]c4cccc(F)c34)NC(=O)[C@@H]3C[C@H](F)CN3C(=O)[C@H](Cc3ccc(C(=O)O)cc3)NC(=O)[C@H](Cc3ccncc3)NC2=O)cc1) [SEQ ID NO: 79]
3 | 0.045 | cyclo([Phe(4-(5-CO2H-2-pyrimidyl))][Ala(1-bicyclo(1.1.1)pentyl)][Phe(4-COOH)]G[Pro(cis-4-F)][Trp(βS-Me,4-F)][Aib]SW[Aib][Ala(pyrimidin-5-yl)]Q[Dab]G[dPro(4R-Bzl(4-F))]) (SMILES C[C@@H](c1c[nH]c2cccc(F)c12)[C@@H]1NC(=O)[C@@H]2C[C@H](F)CN2C(=O)CNC(=O)[C@H](Cc2ccc(C(=O)O)cc2)NC(=O)[C@H](CC23CC(C2)C3)NC(=O)[C@H](Cc2ccc(-c3ncc(C(=O)O)cn3)cc2)NC(=O)[C@H]2C[C@@H](Cc3ccc(F)cc3)CN2C(=O)CNC(=O)[C@H](CCN)NC(=O)[C@H](CCC(N)=O)NC(=O)[C@H](Cc2cncnc2)NC(=O)C(C)(C)NC(=O)[C@H](Cc2c[nH]c3ccccc23)NC(=O)[C@H](CO)NC(=O)C(C)(C)NC1=O) [SEQ ID NO: 83]
4 | 0.047 | cyclo([Phe(4-(5-CO2H-2-pyrimidyl))][Ala(1-bicyclo(1.1.1)pentyl)][Phe(4-COOH)]G[Pro(cis-4-F)][Trp(βS-Me,4-F)][Aib]SW[Aib][4Pal]Q[Dab]G[dPro(4R-Bzl(4-F))]) (SMILES C[C@@H](c1c[nH]c2cccc(F)c12)[C@@H]1NC(=O)[C@@H]2C[C@H](F)CN2C(=O)CNC(=O)[C@H](Cc2ccc(C(=O)O)cc2)NC(=O)[C@H](CC23CC(C2)C3)NC(=O)[C@H](Cc2ccc(-c3ncc(C(=O)O)cn3)cc2)NC(=O)[C@H]2C[C@@H](Cc3ccc(F)cc3)CN2C(=O)CNC(=O)[C@H](CCN)NC(=O)[C@H](CCC(N)=O)NC(=O)[C@H](Cc2ccncc2)NC(=O)C(C)(C)NC(=O)[C@H](Cc2c[nH]c3ccccc23)NC(=O)[C@H](CO)NC(=O)C(C)(C)NC1=O) [SEQ ID NO: 84]
5 | 0.026 | cyclo([Bip(4'-COOH)][4Pal][Phe(4-COOH)]G[Pro(cis-4-F)][Trp(βS-Me,4-F)][Aib]EW[Aib][Ala(pyrimidin-5-yl)]Q[Orn]G[dPro(4R-Bzl(4-F))]) (SMILES C[C@@H](c1c[nH]c2cccc(F)c12)[C@@H]1NC(=O)[C@@H]2C[C@H](F)CN2C(=O)CNC(=O)[C@H](Cc2ccc(C(=O)O)cc2)NC(=O)[C@H](Cc2ccncc2)NC(=O)[C@H](Cc2ccc(-c3ccc(C(=O)O)cc3)cc2)NC(=O)[C@H]2C[C@@H](Cc3ccc(F)cc3)CN2C(=O)CNC(=O)[C@H](CCCN)NC(=O)[C@H](CCC(N)=O)NC(=O)[C@H](Cc2cncnc2)NC(=O)C(C)(C)NC(=O)[C@H](Cc2c[nH]c3ccccc23)NC(=O)[C@H](CCC(=O)O)NC(=O)C(C)(C)NC1=O) [SEQ ID NO: 8]
6 | 0.036 | cyclo([TyrEtNAc][4Pal][Phe(4-COOH)][Pro(cis-4-F)][Trp(βS-Me,4-F)][Aib]EW[Aib][Ala(pyrimidin-5-yl)]Q[Dab]G[dProc3Bn]) (SMILES CC(=O)NCCOc1ccc(C[C@@H]2NC(=O)[C@H]3[C@@H](Cc4ccccc4)CCN3C(=O)CNC(=O)[C@H](CCN)NC(=O)[C@H](CCC(N)=O)NC(=O)[C@H](Cc3cncnc3)NC(=O)C(C)(C)NC(=O)[C@H](Cc3c[nH]c4ccccc34)NC(=O)[C@H](CCC(=O)O)NC(=O)C(C)(C)NC(=O)[C@H]([C@@H](C)c3c[nH]c4cccc(F)c34)NC(=O)[C@@H]3C[C@H](F)CN3C(=O)[C@H](Cc3ccc(C(=O)O)cc3)NC(=O)[C@H](Cc3ccncc3)NC2=O)cc1) [SEQ ID NO: 78]
7 | 0.048 | cyclo([TyrEtNAc][4Pal][Phe(4-COOH)][Pro(cis-4-F)][Trp(βS-Me,4-F)][Aib]EW[Aib][Ala(pyrimidin-5-yl)]Q[Dab]G[dProc4Bn]) (SMILES CC(=O)NCCOc1ccc(C[C@@H]2NC(=O)[C@H]3C[C@@H](Cc4ccccc4)CN3C(=O)CNC(=O)[C@H](CCN)NC(=O)[C@H](CCC(N)=O)NC(=O)[C@H](Cc3cncnc3)NC(=O)C(C)(C)NC(=O)[C@H](Cc3c[nH]c4ccccc34)NC(=O)[C@H](CCC(=O)O)NC(=O)C(C)(C)NC(=O)[C@H]([C@@H](C)c3c[nH]c4cccc(F)c34)NC(=O)[C@@H]3C[C@H](F)CN3C(=O)[C@H](Cc3ccc(C(=O)O)cc3)NC(=O)[C@H](Cc3ccncc3)NC2=O)cc1) [SEQ ID NO: 80]
8 | 0.054 | cyclo([Phe(4-(5-CO2H-2-pyrimidyl))][Ala(1-bicyclo(1.1.1)pentyl)][Phe(4-COOH)]G[Pro(cis-4-F)][Trp(βS-Me,4-F)][Aib]EW[Aib][Ala(pyrimidin-5-yl)]Q[Dab]G[dPro(4R-Bzl(4-F))]) (SMILES C[C@@H](c1c[nH]c2cccc(F)c12)[C@@H]1NC(=O)[C@@H]2C[C@H](F)CN2C(=O)CNC(=O)[C@H](Cc2ccc(C(=O)O)cc2)NC(=O)[C@H](CC23CC(C2)C3)NC(=O)[C@H](Cc2ccc(-c3ncc(C(=O)O)cn3)cc2)NC(=O)[C@H]2C[C@@H](Cc3ccc(F)cc3)CN2C(=O)CNC(=O)[C@H](CCN)NC(=O)[C@H](CCC(N)=O)NC(=O)[C@H](Cc2cncnc2)NC(=O)C(C)(C)NC(=O)[C@H](Cc2c[nH]c3ccccc23)NC(=O)[C@H](CCC(=O)O)NC(=O)C(C)(C)NC1=O) [SEQ ID NO: 82]

— patent US20260242419A1, “A CYCLIC PEPTIDE FOR TRAPPING INTERLEUKIN-1 BETA” (Merck Sharp & Dohme LLC, priority 2023, published 2026)
